Experimental data published in article PMC9063426, “MAP kinases differentially bind and phosphorylate NOS3 via two unique NOS3 sites” (FEBS Open Bio, 2022).

Experiments:
[1] = target: NOS3 AI peptide (autoinhibitory loop site), biotinylated (human); assay: BLI; N-terminally biotinylated NOS3 peptides on streptavidin sensors, inactive MAP kinases as analytes (31 to 1000 nM); 25 °C; PBS with 10% glycerol, 0.005% tween, 1 mM DTT; global one-state association-then-dissociation fit
[2] = target: NOS3 NtMAP peptide (N-terminal MAP kinase site), biotinylated (human); assay: as above
[3] = target: AI peptide (NOS3 autoinhibitory loop site) (human); assay: BLI; N-terminally biotinylated NOS3 peptides on streptavidin sensors, inactive MAP kinases as analytes at 31-1000 nM; 25 °C; PBS with 10% glycerol, 0.005% tween, 1 mM DTT; global one-state association-then-dissociation fit
[4] = target: NtMAP peptide (NOS3 N-terminal MAP kinase site) (human); assay: as above
ERK2 = ERK2 (UniProt P63086); assay: BLI, biotinylated peptide on streptavidin sensor

Row | Substance | koff [1] [s⁻¹] | kon [1] [M⁻¹ s⁻¹] | koff [2] [s⁻¹] | kon [2] [M⁻¹ s⁻¹] | Kd [3] [nM] | kon [3] [M⁻¹ s⁻¹] | Kd [4] [nM] | koff [4] [s⁻¹] | kon [4] [M⁻¹ s⁻¹] | KD (ERK2; reference: unphosphorylated AI peptide, sites S633) | koff [3] [s⁻¹] | KD (ERK2; reference: unphosphorylated NtMAP peptide, sites S114)
1 | GST-JNK1α1, inactive (unphosphorylated), made in house (from UniProt P45983-2 1-384) (enzyme) | 0.00025 | 84600 | 0.000543 | 14100 | 3 | 84000 | 38 | 0.00054 | 14000 | – | – | –
2 | NOS3 (eNOS) autoinhibitory (AI) loop site (from UniProt P29474) AI pS633 peptide | – | – | – | – | – | – | – | – | – | lost; reference 170 | – | –
3 | ERK2, inactive (unphosphorylated), His-purified (from UniProt P63086 1-358) (enzyme) | 0.00207 | 12100 | 0.00623 | 6600 | 170 | 12000 | 940 | 0.062 | 6600 | – | 0.002 | –
4 | NOS3 (eNOS) NtMAP site (from UniProt P29474) NtMAP pS114 peptide | – | – | – | – | – | – | – | – | – | – | – | lost; reference 940
